Test results published in the supplement of paper PMC9732359.
± gives the uncertainty stated by the source.

Experiment: protein stability index of a GFP-peptide fusion (yeast GPS) (PSI 1-4); higher = more stable; sorted into four equal gates, so the index is relative within each strain
Summary of the method: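 Tiled 17-residue yeast protein peptides were fused downstream of GFP in a plasmid that also expresses Cherry, and the pooled library was carried in yeast. Mid-log cultures in leucine-free medium were sorted into four equal gates by GFP/Cherry fluorescence ratio, and plasmids from each gate were PCR-amplified and Illumina-sequenced, with reads assigned to strains by barcodes. The protein stability index for each peptide was each gate's read frequency times its gate number, summed.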

Sequence | protein stability index (doa10∆) | protein stability index (pdr5∆) | protein stability index (san1∆) | protein stability index (ubr1∆)
QLKIQNRQAAASVVPSA [RPL12A] | 1.82 ± 0.035 | 2.48 ± 0.042 | 2.05 ± 0.051 | 2.08 ± 0.03
GSRMVRELFVMAREHAP [RPT6] | 1.82 ± 0.074 | 1.68 ± 0.073 | 1.09 ± 0.27 | 1.54 ± 0.079
EPLSDTEEPDLAIADVE [DSN1] | 2.96 ± 0.081 | 2.81 ± 0.067 | 3.09 ± 0.043 | 3.24 ± 0.099
ELNVDSMDVDDKNSGVK [ITC1] | 1.97 ± 0.1 | 1.27 ± 0.042 | 1.68 ± 0.1 | 1.43 ± 0.06
PDYYMIIKYPVAFDNIN [SNF2] | 2.78 ± 0.14 | 2.08 ± 0.12 | 1.97 ± 0.12 | 2.44 ± 0.15
NDNEDDDEEYDYNDVEV [BRR2] | 3.28 ± 0.077 | 3.22 ± 0.079 | 3.34 ± 0.06 | 3.4 ± 0.052
SLCTVWKPNPSYDVENV [SRB5] | 2.47 ± 0.097 | 2.03 ± 0.098 | 2.08 ± 0.19 | 1.84 ± 0.082
LVQLKKFSDLKFILQIL [YML103C/NUP188] | 2.15 ± 0.08 | 1.91 ± 0.075 | 2.34 ± 0.11 | 1.44 ± 0.059
KKSRSNLSQENDNEGKH [YAR002W/NUP60] | 2.77 ± 0.058 | 3.12 ± 0.052 | 2.91 ± 0.049 | 3.11 ± 0.044
MTTSAVSPTVGKLFSDI [YIL149C/MLP2] | 3.1 ± 0.073 | 3.33 ± 0.064 | 3.24 ± 0.044 | 3.16 ± 0.036
LAPARVRRRFARGMTSK [RPS15] | 2.99 ± 0.1 | 3.17 ± 0.094 | 3.11 ± 0.096 | 3.03 ± 0.082
SKEWFQLDDEDFDLLNK [FAS1] | 3.03 ± 0.11 | 3.31 ± 0.1 | 3.28 ± 0.084 | 3.06 ± 0.08
MTTFRFCRDCNNMLYPR [RPB9] | 2.78 ± 0.14 | 3.14 ± 0.11 | 3.41 ± 0.14 | 2.99 ± 0.068
SMILEAISTDKINPFGF [RRI2] | 2.85 ± 0.076 | 3.01 ± 0.12 | 2.59 ± 0.12 | 2.92 ± 0.083
AGGEAGEAEAEKEEEEA [RPP1A] | – | 3.47 ± 0.21 | 2.54 ± 0.22 | 3.5 ± 0.18
LTYDRLEFATIRKGAND [PRE9] | – | – | 2.62 ± 0.24 | –
PKLESVKWQYDPNNPVD [SNF12] | 2.38 ± 0.059 | 2.81 ± 0.055 | 2.21 ± 0.067 | 2.55 ± 0.031
DNEDSDNLFGETESSVS [SWI3] | 3.48 ± 0.14 | 3.07 ± 0.081 | – | 2.93 ± 0.085
HGILDDLETSLSQSSSY [MED2] | 2.98 ± 0.083 | 3.33 ± 0.1 | 3.12 ± 0.099 | 3.29 ± 0.14
VKLWEEDPDQEECSGRR [YGL100W/SEH1] | 3.18 ± 0.084 | 3.08 ± 0.081 | 3.37 ± 0.04 | 3.37 ± 0.055
VRSANEDGTFSVLYPDE [RRP43] | 3.13 ± 0.088 | 3.02 ± 0.088 | 3.18 ± 0.06 | 3.28 ± 0.1
QRDFRKHGAVHLSTYLK [RPL21A] | 2.6 ± 0.046 | 2.41 ± 0.042 | 2.48 ± 0.054 | 2.71 ± 0.036
GNILDFNLNLPPSSFGR [REC8] | 3.04 ± 0.075 | 3.24 ± 0.15 | 3.03 ± 0.055 | 2.94 ± 0.1
LLLAANTHLGARNVQVH [RPS0A] | 1.93 ± 0.04 | 1.21 ± 0.039 | 1.17 ± 0.061 | 1.13 ± 0.036
IMELPGVYSDDELLSQL [SRP68] | 2.99 ± 0.065 | 3.13 ± 0.056 | 3.22 ± 0.045 | 3.05 ± 0.07
PFVLAENMWPFSYQEVE [CDC53] | 1.6 ± 0.037 | 1.9 ± 0.04 | 1.56 ± 0.051 | 2.25 ± 0.028
